Data taken from patent US7223392 (dated 2007).

Legend:
p5E8G1N- = assay: apparent Kd
p5E8G1 = assay: apparent Kd

Kd (p5E8G1N-): 0.7 nM | Kd (p5E8G1): 0.7 nM
B1: human CD23 (receptor)
chain: MELQVSSGFVCNTCPEKWINFQRKCYYFGKGTKQWVHARYACDDMEGQLVSIHSPEEQDFLTKHASHTGSWIGLRNLDLKGEFIWVDGSHVDYSNWAPGEPTSRSQGEDCVMMRGSGRWNDAFCDRKLGAWVCDRLATCTPPASEGSAESMGPDSRPDPDGRLPTPSAPLHS
